These results are taken from the domain aggregation screens of Martell et al. (2025).

The nature of this data set: soluble fraction after stress (log2 fold change); higher = more stays soluble; pooled small domains, quantitative proteomics. The following applies: stress: pH 4. Put shortly:
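Pooled custom libraries of small protein domains were subjected to pH 4 and measured by high-throughput quantitative proteomics. The log2 fold change in soluble amount per domain is reported, higher values meaning more remained soluble. This is used as a measure of aggregation propensity.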
As to “HMGISQAQAMQALRKLIEEEDKHTPLSDQTLMERLKAAGIPLARRTIAKYRESLGIPSAAQRK”, the “soluble fraction (log2)” value is -0.0327.

As to “HMGISVEVPDLKNMSVAEAGSLLKNSGLSYAVVDSDYVKTISPGKILDQNPGRGLRVKKGRIVYLTINSL”, the “soluble fraction (log2)” value is -0.283. The result for “HMGITDHIYQDLKKRLENGNYPAGTRFPSESTLADEFSVNKMTMNKIVSMLAEQGYLIRGNRGAGTRVAEN” reads -0.0244; that for “HMGITPSIEMILEYFAFKESSETEANKFFNYYSSIGWLVGGKTKMKDWKASARNWIMNQNKFQ”, -1.01. The result for “HMGIVAPGTLKHLHAVGNSYYPDWETKRHELVTAVTKGRTSSSKELYEAEANRLITRIEELLMTAAQSV” reads -0.548; that for “HMGIVTMPGQGSKMRFDFDATGDLPSSTSWRGMFAYANNTKRAYVSTGTTMGGYNGWRQLIAMDEYGNYQT”, 0.22; that for “HMGKEIEAPDFKNMTLKEAKIAAKEYKIRIKKGDEVVSEEVEKGRIVSQDPDAGTTIKTGSTVTVNISKGL”, 0.0135. As for “HMGKELSTVVVPDLTGLSVLEARNVLTKVGLQLTPSGAGIAFKQIPTPGTRLTLGATVTVYFVATGY”, the figure is -1.27; as for “HMGKELTVPDVVGQNYVSAQEKLIAGGFQVEVADSVYDSRYGRGVVVDQNPHKDTRVKPGRLIYVTVNA”, 0.0611. As for “HMGKEWPTPDNVEEWKKLVKKARLWPIQADQAQSEETRERNRKKWELFVAYAKRFGYRAGIGETGKPFVNN”, the “soluble fraction (log2)” value was determined as 0.164. The result for “HMGKINEIVANNIAILRKKNRLSLEELGKLSGVSKSMLALIEKGDGNPTLGILWKIANGLGVPFDELTRRP” reads 0.0455; that for “HMGKLGENIKRIREGMGLSQRQFGELIGKSDSQIWSYENDRTDILASTLYKIAAVANVDFNNLMAGIIP”, -1.35. The result for “HMGKLYRDRYAPLEPDGARAGDRVFIISLEKEGTLERIDLPRKTATVLLGSSIRSTFPLDDLYQPRG” reads -0.163; that for “HMGKMTSTLGVHIAAYRKEHGETVAQFASRSGVSVSSIRRIESGISDPSADLVWKISRHMGMTMDDLFKKM”, -0.0972; that for “HMGKNISEEDMLGYFKKIDLDYDAETKEVIAPTFRHDLFRLADLAEEVARFFGYDNIPTTLPSGEAT”, -0.488. The result for “HMGKPAGLIRELGNHPEDEKPVTLNNGRFGPYVKHGKVMASLTKADSPDDITFDRAIELIAIKAEKMAAKG” reads -0.00901; that for “HMGKPTPASQVATRWLTGNLPESLPVAGPAPSFEALARTVSTDLHPRSVLQELVRLGVAEEANGVVTLRRQ”, -0.0399; that for “HMGKPVTMELLIPYSQGSLVHRISEAGEVAKTEYQNDGTYMQVTFTPSAKDHALMQEVASYRI”, 0.0901. With “HMGKSDDSLAAEKFIQHVRKNGELSYEQAYRMVHAYFPDFRNFEGMVSGAVKSGYLILIQKSTGLFLRAKE”, the “soluble fraction (log2)” value was -0.205. On to “HMGKTEMPFSTFLTEVDKGNIVSVDIRGSEISGNFRDGKGFKTYSPNYPNLVEKLSAKGVAITAGPR”, for which the “soluble fraction (log2)” value was determined as 0.295.

As to “HMGKTKFTEMSALELKAYAELNNNSMHWVYRMLYIGGGDVGFRKGMKELGYSGKFIWMTLERLKKS”, the “soluble fraction (log2)” value was -0.583. The result for “HMGKTTQEIEERSSTSTLTLTQTPKEIISVQGKKSDQSFFTNIQYTQNGKVIVPKQTGIYDTIKVVFTVSL” reads -0.256; that for “HMGKVLIYKPNMSVSDVAIRLGISNAEIIKRLMGLGVMTSINQTIDRDTIELVAMDLGFSIEN”, -0.581; that for “HMGLAGVQSDVKVSFDGDLLVVTSDIARSFNLFAVDGRLIRSVNLIAGRNEIRGLERGFYLAEKQKIFV”, -1.36. For the sequence “HMGLAWTVEGRTVLLGRTADRIELYNVGGGLVALARESDRISAPGVGLYVVRVVSDGQSVSQKIWIT”, the “soluble fraction (log2)” value was -0.325. The result for “HMGLDMSLEREQHRALREASQWYARLADEQVDSDAERAWRHWVAADEANQRAWQYIEAVSQRFDG” reads -0.829; that for “HMGLDNEGFERLRQKITRLLSEEALPVKELVDSFASKMRQEVLETLAFLQQEGVIEEKNGKLFLK”, -0.283; that for “HMGLIDNLTRIMEKKNISAYQLEKAGIVKQTTFTSWKKGTQPALDKIIKIMQYIEVTPNELFGY”, -0.456. The result for “HMGLKWVYYTNIEPDGNKINNQKLYDILKQKFVYPVIISRDELDSMELKDLTYDSYIDVEGRYFKPYNLD” reads -2.03; that for “HMGLNPSILVKLGNANIKTIDNLADLASDELKEILEDISITSKEADEIIMRARSSWFEEDDKKEDNI”, 0.175.

Regarding “HMGLPAWVPQNYIDRVTAIYDYSADKDDELTFNEGSTIFVLKKNDDGWWEGVMDGVTGLFPGNYVEAT”, the “soluble fraction (log2)” value is -1.63. In the case of “HMGLQLTPVRRRVLEILLHEHRALGAYDILDKLRSEGLGSQPPVAYRALDFLVTHGFAHKIERLNAF”, the “soluble fraction (log2)” value was -0.0897. The result for “HMGLQRLTVSPEDAGVRIDKYLAEQLPDITRSYLQKLLKDGSVQMNGKPVKASTKTAVGAVIALTIPEP” reads -0.157; that for “HMGLSAEAARMAIQDAGLSKEDFAQKLGIKKVERVVEWEAGTSKPTFVQAQKIANATNIPFGYLFLVNPPK”, 0.0939; that for “HMGLTRRAQLEVADANLKRLYPGMHQSWVTAIAEYLHSSYWRYINSLEPEYAASIQRVYEQHIDAM”, -0.0592. For “HMGLTYEQILTDVQRFVTQNHADTLSNEGNPEEARKLLKDYILQYVQNRSYHVDGQTTEELVDSLYED”, the “soluble fraction (log2)” value is -1.13.

“HMGLVDSLEPLLRRVYEALPQRRSMTTERLAVAAGLDEESVKVALARLQLSAFVGVDERGWHRSL”: the “soluble fraction (log2)” value is -0.0455. Take “HMGLVLIDSYNDIGSAKLITNKIRNLGLIFEENENKINVFAGPFEKNDINLKIDFLIRNGYTNAQLY”: the “soluble fraction (log2)” value was -1.92. As for “HMGLVQQSAQKSDDAAKLMAANNLNAAQSKYQLPDEAEKDFFTFAFERGYAVEDFVDAGLVDKIMADFSA”, the figure is -0.44; as for “HMGLVVIGTEAGYPAEKAGILAGDRIRKLNGAAVPDYDTFLTALAARKGEPSAIELERDGKTLEVTVSPL”, -0.21.

On to “HMGLWWTEAERELVKTTIEQLYKDTNIAEPVDSKNLRASIPALKAMRTGLSAENQARVDTLLGALQV”, for which the “soluble fraction (log2)” value is -0.915. The result for “HMGMAGILDSARMASFIQEKLGYGGGQIRASVMGGHGDDMVPLPRYSTVAGVPLSDVLTQNEIDEMFAQ” reads -0.259; that for “HMGMDALIGRRVFVSEEILPGDTGGRMAVDGDSWRAISVGTASNIPAGTEVRIRGHQSLVLEVEP”, -0.629; that for “HMGMEENLLKERKQILMDIMKSKEYQPMKVKELAMVLNVPKEDREELRYVLNELMNEGKIVESKKGKFSIA”, 0.0605. As for “HMGMESFWNRVANLLNTSTVVELAQILDVKRSTLSSWIHSDRRPPMEVLLKITRLTGVDIHRLE”, the figure is -0.576; as for “HMGMETQLSPKEKSIYTIIQNRPNIQSGEVSEKLAIPLPTVKRILSDLINKGLIEKQGSGRNVSYTI”, 0.241; as for “HMGMFNENLRFLRQKRQMSQQAFASILGIPRTTYSEYEKGNTEPNLKLLIRLSELLDVSLDNLISDDLTHN”, -0.642.

Take “HMGMKTSQKLARQREIVRLIRAQTIRTQAELADALRERAFPVSQPTLSKDIAELGLIKVPLPDSGYRYQLP”: the “soluble fraction (log2)” value was -0.105. As for “HMGMNKEHFIIELKIYLKALNPKDQAIILAKYKALFDARVAEGETEEQVAKSLGKPRVIAEEILKEQGIE”, the figure is at least 0.43. With “HMGMSMNEFLNNRLEQLAVEAVDKSSLGEEIFFYAEPATINLFKDAVDEDEYKVVFPVLKSIIEVEQKLSR”, the “soluble fraction (log2)” value is -1.69.
